Experiment: soluble on expression in E. coli; label from the status in PepcDB or PDB records

Sequence	soluble on expression in E. coli
MSLGGANGKSGLRIWRNARLATMADGVAGLGIVEKGAIATRDGLIIYAGAEASMPALAGPGAETVDCEGRWITPGLIDCHTHLVYAGNRANEFEMRLAGATYEEVARAGGGIVSSVKSLRAANEDELVAQTLPRLDALMAEGVTTVEVKSGYGLDLDNEKKSLRAARRLANERPVTIRTTCLAAHALPPEAKGDKEAFVDLVAGTILPGVAAEKLADAVDGFCEGIAFSPEQIARVFDKARALGLPVKLHADQLSNLHGAALAASYGALSADHLEYTDEAGAAAMAKAGTVATILPGAYYFIRETKKPPVDLFRRHGVKMAVATDSNPGTSPLTSLLLTMNMAATLFGLTVDECLAGVTREAARALGLLDKTGTLEAGKSADLAIWDIERPAELVYRMGFNPLHARIWRGQGSLSAPNTQPAFTIRTAKGIITITTDPNSSSVDKLAAALEHHHHHH	soluble
QIGELKTTVGNSTIKVNDEVQVGSAFEAILGIEGLNGDTEVYSAEYLFEYNAEAFILNEITSFNDSLFVKSKEVEPGKVRILVASLGNEIEKDSDLVKVNLTPKISSELEVLGLTTALVGAGDGNTHDLELSSKEVKINEEAS	soluble
QYRIIDFKRDKDGIPGRVATIEYDPNRSANIALINYADGEKRYIIAPKNLKVGMEIMSGPDADIKIGNALPLENIPVGTLVHNIELKPGRGGQLVRAAGTSAQVLGKEGKYVIVRLASGEVRMILGKCRATVGEVGN	soluble
MHHHHHHSSGVDLGTENLYFQSNAMNDPKVIVALDYDNLADALAFVDKIDPSTCRLKVGKEMFTLFGPDFVRELHKRGFSVFLDLKFHDIPNTCSKAVKAAAELGVWMVNVHASGGERMMAASREILEPYGKERPLLIGVTVLTSMESADLQGIGILSAPQDHVLRLATLTKNAGLDGVVCSAQEASLLKQHLGREFKLVTPGIRPAGSEQGDQRRIMTPAQAIASGSDYLVIGRPITQAAHPEVVLEEINSSLV	soluble
GAAEKTVVNISKVDGMPWFNRMGEGVVQAGKEFNLNASQVGPSSTDAPQQVKIIEDLIARKVDAITIVPNDANVLEPVFKKARDAGIVVLTNESPGQPSANWDVEIIDNEKFAAEYVEHMAKRMGGKGGYVIYVGSLTVPQHNLWADLLVKYQKEHYPDMHEVTRRMPVAESVDDSRRTTLDLMKTYPDLKAVVSFGSNGPIGAGRAVKEKRAKNKVAVYGMMIPSQAASLIKSGDITEGITYDPATAGYALAAVASTLLNGKTIEPGFELKELGKAEVDSDKHIIRFHKVLLVNKDNIDSLY	soluble
MGSDKIHHHHHHMDTKQLKQDIIDYAYTIGIDSIGFTTADPFDELKQKLEAYHANGYASGFEESDIALRTEPKLSLPTARSIIAIAVGYPNKLKGAPKSVRGDRRGLFARASWGQDYHTIMRKRLDMLAAFIESKVPDVEIKSMVDTGVLSDRAVAERAGLGFVGRNGFVINPKLGTWTYLGEMLVSIPFEPDDPLLDSCGDCTICVDRCPTSALVGNGQLNSQKCISFLTQTKGYMPDQYRYKIGNRLYGCDTCQQVCPKNRGINTEQDDIILEPEILKPRLVPLLRMSNKEFKQTYGHLAGAWRGKKPIQRNAILALAHFNEVDAIPELKKVATTDERPMIRATAYWAIGQILGEEARDFINANYDQEDAEVQNEMIKGLDTRRE	not soluble
QEGTSPMQKETRFLPGTNVEYEDYSTFFDKFSASGGFVLFNSNRKKYTIYNRKESTSRFAPASTYKVFSALLALESGIITKNDSHMTWDGTQYPYKEWNQDQDLFSAMSSSTTWYFQKLDRQIGEDHLRHYLKSIHYGNEDFSVPADYWLDGSLQISPLEQVNILKKFYDNEFDFKQSNIETVKDSIRLEESNGRVLSGKTGTSVINGELHAGWFIGYVETADNTFFFAVHIQGEKRAAGSSAAEIALSILDKKGIYPSVSR	soluble
MSYSWKKILIKPESTVVDALRVIDNEALRIALVVNDEQQLLGVVTDGDIRRGLLNNLPLETPVVDIMSRSPITASVNTAKEQLVKLMESKSILAVPLMEENKVVGLETLHHLFEEKTYHNPVFIMAGGFGTRLRPLTDTCPKPMLKIGNKPILETVIRSFIKAGFVNFYISTHYMPEQIQNHFGDGSELGVKISYVHEDSPLGTGGALGLLPDDLPQDLPLIMMNGDVLTKVDFERLLDFHTENQADATMCVREYDYQIPYGVINGKGNKITSMVEKPIQRFFVNAGIYVVSPSVIQSVPKNHHIDMPTLLEQHMNERDNILMFPIHEYWLDIGRMDDFNRAQADIHTLGLDLEHHHHHH	not soluble
GNSPQEEVELKKLKHLEKSVEKIADQLEELNKELTGIQQGFLPKDLQAEALCKLDRRVKATIEQFMKILEEIDTLILPENFKDSRLKRKGLVKKVQAFLAECDTVEQNICQETE	soluble
MKLLTLNCHSWQEENQIEKIQYLAKVIQEEEYDVIALQEVSQSIQAENVCGNKKKDNFGLLLLEELKALHVKDYNITWDFSHIGYDVYEEGLAIITKHNIIKEDTFFISENEDTTYWKTRKIVSTTIAYNGKDITFYSCHLGWWNDEEESFKGQVDRLMERVDSNKLAFLMGDFNNNARLKGEGYEYMMQKGLYDTYELAIEKDEGTTVQGEIAGWDENKHNLRIDLILCNQSKKVHSSKVIFNGTNRNVISDHFGVEVQLDI	not soluble
MKARKAKEFVFNDLLSMESYCINHYSDYYSKSNFSCNVTQLSKGELVTSSICAPINDAHLEIFKSNQTILYEEEANQNSVAFCWINSNGEQAQTNTIISGHKMMDLSIAGFNRLNKTGGNVWDIVGANTQLCCMSLKWEKVKEKINQMNAYNAFAKLEECIGIDSNSSASIQLKSLFERHFTKGLRESEAFYDLAIATLEEPCDLEILTERSDKTELIEDLVKLLYEDREGMPPLTISEITKYLNTEKESLSIACRTNFDMPILDLIKSIRLEQVKKSYLNPHVPKGLKNFTKKQNALYYGFKNWTTFQKFYHQSFQESPDETINKSSKASVLVTDLFTRRS	not soluble
MSLSQSSRLSALPIFQASLSASQSPRYIFSSQNGTRIVFIQDNIIRWYNVLTDSLYHSLNFSRHLVLDDTFHVISSTSGDLLCLFNDNEIFVMEVPWGYSNVEDVSIQDAFQIFHYSIDEEEVGPKSSIKKVLFHPKSYRDSCIVVLKEDDTITMFDILNSQEKPIVLNKPNNSFGLDARVNDITDLEEGHHHHHH	soluble
MQLEYPLTNHMKGNIVLTQEKTAIAYYRVRSETVMLTDVEKKLKTKRKVARALNRLKANDGFEINLLPVNADIRGKMGAMRSLIDSNNYEVGVDKLMKTAMVLEQEMGMVYEYTWIIGVPLIKKDLAVDLKETVTNSISNVSEKFVKGLGFDVELAEYWEKDYREQELEVYQNLSELLIERLTEDELYYYQAYQFLKNIPHERQDVLSSQNLDNLMATKIKPLFGGGLHLNCDYGESYISYLPMGDVGVFLDGNHFLEVVQKMPFPVEVKIQATFAESKGQLALSGRSSRARTRTKNIMQEAHLAGSKQKRKIVEGQLSLDDLDQKIDDGVDIIDWKAVIVVSGSTKKQMRARKKYLINRFDSLDIPLIKATFDNPYLFQSTLFGNFLRMQTSRWQHTSTIESFAELNFFTSLHAGTKLGFYLGRVDTTLEEKEDRKSIISSSKNLIFMNMLLANKEGVDGKKTNNPHWALTGDTGNGKSVTAKTLFMQMALLKDRVLYIDPKKEMRKQFMYTINDPEYQKKYPLDVDFVKSFNFVTLDVRDTKNHGVLDPIVLFDETEAIATTKAMLTNIYEGTWNLKQKTEINEAIAKVVLERKEGKKVGFWHVIERLVESEISDVKDMGRFILSTVKGSVLELAFSHGDVEGLSFDKKVTILEIEDLDLPTDKNENLDENKRLSVTLMFALGTFCSKFGSRNPKEETVTFFDESWIFQSSPEGKAILKSMKRIGRSFNNFLVLITQSTNDLDDSEDGTGFGTVICFDEVQNREGVLKYLNLPVNEINMKWVSNMVQGQCLMKDMFGQTNRIVVHVIFEEWLELFKTVDDTEASKMENRFVA	not soluble
MAITAKNAQLYGLDLELGLETGLAADVDNDSMSGLVLVELLSPYHQLETRFKLESQTALAFQAMADSAAKDGIKLAICSAYRPFDRQLAIWNAKASGKRVVLDINEQPVDITPLSESELVDLILLWSALPGASRHHWGTDIDVFDAEKIEVKSLRLVEAEYRDGGPCAQLHQWLVANAKDFGFYFPFQRGQSAVSAEPWHISYFPVSQILLPQFEVQALTQIIAHSDMLLKDAVLARLPELVAEYVHRIAQP	soluble
MRSALSLKPSNGNAAKSQAVNNKNVIKNAPLGGKLTRQIGTSNLLQQALPSKKIDESPIIKIDAKDSFKVFEDQEPEKENSSENVDATEKDSNVIPAEDNNMIHELERKMEEKSRAEKLKFKFMQTRDNSDITSRFSEPPSEFSVLCDDDDCDKVSVASSTFTTSVRATFSSFHFDENQRKKEFGKEEAVKKIQKKAAKEARDDSMFSSEEFFPDIIKYMLHRQTKNRASHECFDIQSQVNEEMRTILIDWFSDVVKEYNFQKETFHLAVSLVDRALSMFNIDKMRFQLVGTTSMMIAVKYEEIFPPEIEDFALITDNTYRVPDILLMERFLLGKFDFVVAMPTSSWFGTCFAKRMNFTKKMRNTVHYLLELSLIDVHFLRYRPSDIAAAACCFANLQADVESWPQKMVDDTGISTEDFVDVLRDLHRMYLNASTADFKSIFYNYSETAQMEVALLPAPTDKLRSMFPSIFVTAPKSSNDSSSPQ	not soluble
MTGRTGGNGSTQAQPERVMLVGVMLDKDGTGSSAARLNGFQTALAEAVELVKAAGGDSVRVETAKRDRPHTALFVGTGKAAELSEAVAADGIDLVVFNHELTPTQERNLEKELKCRVLDRVGLILAIFARRARTQEGRLQVELAQLSHLAGRLIRGYGHLQSQRGGIGMKGPGETKLETDRRLIAHRINALKKQLANLKKQRALRRKSRESGTIKTFALVGYTNVGKSSLFNRLTKSGIYAKDQLFATLDTTARRLYISPECSIILTDTVGFVSDLPHKLISAFSATLEETAQADVLLHVVDAAAPNSGQQIEDVENVLQEIHAGDIPCIKVYNKTDLLPSEEQNTGIWRDAAGKIAAVRISVAENTGIDALREAIAESCAAAPLEHHHHHH	not soluble
MGSDKIHHHHHHMNSGEYKYIWQASDWPNWRFDLAALAEPMAEVSRAQGLLMGRLADVGMALRDQASLAALTEDVVKTSEIEGEQLNVESVRSSIARRLGVDIGALAPVDRHVEGVVEMVLDATANCQALVSRERLFGWHAALFPTGYSGLSKINVGGWRDDATGPMQVVSGPIGRQRVHFEAPPADRLETETSRFLDWLNGTLNEPPLLKAGLGHLWFVTLHPFDDGNGRIARAIGDLLLARADGSPQRFYSLSAQIQRERKAYYDILERTQKRSMDVTEWLAWFLDTLHRAVDQAQHTLDAVLTKARFWQRWATTPLNERQVKLLNKLLDGFEGKLTSSKWAAIAKCSPDTALRDINDLLTRGVLRKSDAGGRSTSYELNDLPE	not soluble
MAHHHHHHMTAKSPCLDILPFIFREEQISNRIQTFPTETMKKAYLELKGYFEQYKIYAEKLINFSGSMNDENQRKEKLIIKLRCEYYAVIFSQASKLLHEYINFRNRLILELAINVNGLINSIHPNIIQRLNEDEQKELQKYCENIRSERTRSKLQNKFTVCFLNDLIIEDLNYEGVQKDMKGRNVFYSAGLKVSVFEDKALDLQKCEWAKILRD	not soluble
AHHHHHHGSVLKCVVCGREYPEDEVRYRCECGGLLEVVIDLDKVDTSIFNGKEIKLWKYESWLPVKKRVSLEEGGTPLYRLLNLESDLGVKELYAKNEGANPTGSFKDRGMTVGVSKALELGMDKVICASTGNTSASLAAYAAKAGIKAYVLIPSGKIALGKLAQAIIYGARVVPIKGNFDDALRVVVETSKELGIYMLNSINPFRLEGQKTIAYEIYDQLGKVPDNVILPVGNAGNISAIWKGFKEMYEAGVIDELPRMIGIQAEGASPLAKAWKEKRKFQPEESPETIASAIRIGNPANWIKAWRAVEESGGLFESVSDEEILRAQKLLASREGLFVEPASAASLAGLIKLLESGEISRNESYVLITTGHGLKDPNIVIKNFQVPEPIDPTLEAFKEVIE	soluble

From the DeepSol protein solubility set
